Assays:
[1] = test system: Treg; CD4+ T cells expressing high PD-1; assay: T cell analysis (Treg, PD-1+/CD4+ T cells) in CT26 tumor-bearing mice; assay type: in vivo, Balb/C mice
Method: (§1) On Day 9, mice were injected with 100 mg/kg of CTX, IP. Twenty four hours later, on Day 10, mice were treated with 100 ug of 137-DC-Ig. […] Two naïve mice and 4 mice from other groups were removed from the study on Day 11 (2 days post CTX) and Day 16 (7 days post CTX) for T cell analysis. […] Mice implanted with tumor cells intended to have more PD-1+/CD4+ T cells in the draining LN compared with naïve mice.
as §1, with “IP.” for “IP. Twenty four hours later, on Day 10, mice were treated with 100 ug of 137-DC-Ig.”

[2] = test system: SP-1 mouse prostate tumor cells; assay: Metastatic prostate lung tumor model (SP-1), survival; assay type: in vivo, B10.D2 mice; conditions: CTX 50 mg/kg Day 5, 12, 19; B7-DC-Ig 5 mg/kg Day 6, 13, 20
Method: SP-1 cells were isolated from mouse lungs that were metastasized from. TRAMP prostate tumor cell injection. B10.D2 mice were first injected with 3×10^5 SP-1 cells via tail vein injection. On Day 5, 12 and 19, mice were injected with 50 mg/kg of CTX where was indicated. […] Here, “NT” refers to “not treated”.
The CTX mice received 3 doses of CTX, 50 mg/kg, on Day 5, 12 and 19.

[3] = test system: CT26 colorectal tumor cells; assay: Established CT26 colorectal tumor model (subcutaneous); conditions: CTX 100 mg/kg on day 10 alone
Description: Balb/C mice at age of 9 to 11 weeks were implanted subcutaneously with 1.0×10^5 CT26 colorectal tumor cells.

P815 mastocytoma = P815 mastocytoma tumor model; assay type: in vivo, DBA/2 mice
Method: P815 mastocytoma cells were derived from DBA/2 mice after methylcholanthrene (MCA) treatment. Injection of 5×10^4 cells SC can result in mortality approximately 35 days post tumor inoculation.
DBA/2 mice (6-10 weeks of age, females) were first challenged with 5×10^4 live P815 cells injected SC in the flank. Six days later, the mice were treated with murine B7-DC-Ig via IP injection. […] Control groups were treated with vehicle only or with murine IgG. Tumor size was measured with digital calipers every 2-3 days. Mice were euthanized and defined as dead when their tumor size reached or exceeded 1000 mm^3, according to protocols approved by the Institutional Animal Care and Use Committee (IACUC) of the American Red Cross (ARC; the site of Amplimmune's vivarium). Surviving tumor free mice were re-challenged with P815 tumor cells on Day 52.
The tumor-free mice were then re-challenged with 5×10^4P815 cells administered to the flank opposite the primary inoculation site on Day 52.

[4] = number of mice, 5 per group, P815 cells SC, treatment IP biw 3 weeks starting Day 6

Molecule: O=P1(N(CCCl)CCCl)NCCCO1 (stereo not drawn) [CTX, cyclophosphamide, reference compound]
- Treg in the spleen vs tumor-implanted vehicle-injected mice ([1]; Day 11, 2 days post CTX 100 mg/kg IP): significantly lower
- mice survived on Day 100 [2]: 17%
- outcome of mice (tumor growth/survival) [3]: died as a result of tumor growth or were euthanized

B1: Murine B7-DC-Ig: murine B7-DC fusion protein: B7-DC extracellular domain fused to murine immunoglobulin Cγ2a hinge, CH2, CH3 (likely SEQ ID NO:80/81) (protein)
chain: MLLLLPILNLSLQLHPVAALFTVTAPKEVYTVDVGSSVSLECDFDRRECTELEGIRASLQKVENDTSLQSERATLLEEQLPLGKALFHIPSVQVRDSGQYRCLVICGAAWDYKYLTVKVKASYMRIDTRILEVPGTGEVQLTCQARGYPLAEVSWQNVSVPANTSHIRTPEGLYQVTSVLRLKPQPSRNFSCMFWNAHMKELTSAIIDPLSRMEPKVPRTWEPRGPTIKPCPPCKCPAPNLLGGPSVFIFPPKIKDVLMISLSPIVTCVVVDVSEDDPDVQISWFVNNVEVHTAQTQTHREDYNSTLRVVSALPIQHQDWMSGKEFKCKVNNKDLPAPIERTISKPKGSVRAPQVYVLPPPEEEMTKKQVTLTCMVTDFMPEDIYVEWTNNGKTELNYKNTEPVLDSDGSYFMYSKLRVEKKNWVERNSYSCSVVHEGLHNHHTTKSFSRTPGK
modifications: Synthetic murine B7-DC fusion protein with signal peptide
- mice responded to treatment (P815 mastocytoma; 100 μg per injection (approximately 5 mg/kg) IP, 2 times per week, up to 6 doses): Four of 5
- # Tumor <500 mm^3 (P815 mastocytoma; [4]): 2
- # Tumor free (P815 mastocytoma; [4]): 2
- # Tumor ≧500 mm^3 (P815 mastocytoma; [4]): 1
- mice in which tumor was eradicated (P815 mastocytoma; of 5 treated mice): two
- mice showing delayed tumor growth during treatment (P815 mastocytoma; of 5 treated mice): two
- tumor status after re-challenge with P815 cells on Day 52 (P815 mastocytoma; tumor-free mice re-challenged on opposite flank, followed through 74 days after primary inoculation): remained tumor free
- CD4+ T cells expressing high PD-1 ([1]; Day 16, 7 days post CTX and 6 days post B7-DC-Ig 100 ug): significantly lowered
- mice survived on Day 100 [2]: 17%
